Experimental findings from patent US20250333467A1 (TECTONIC OPERATING, published 2025) are described below.

Common to all, as to assay: cell-based or functional assay
The target of experiment [1] is T1, human RXFP1 (human, UniProt Q9HBX9 1-757).
T1 sequence (looked up): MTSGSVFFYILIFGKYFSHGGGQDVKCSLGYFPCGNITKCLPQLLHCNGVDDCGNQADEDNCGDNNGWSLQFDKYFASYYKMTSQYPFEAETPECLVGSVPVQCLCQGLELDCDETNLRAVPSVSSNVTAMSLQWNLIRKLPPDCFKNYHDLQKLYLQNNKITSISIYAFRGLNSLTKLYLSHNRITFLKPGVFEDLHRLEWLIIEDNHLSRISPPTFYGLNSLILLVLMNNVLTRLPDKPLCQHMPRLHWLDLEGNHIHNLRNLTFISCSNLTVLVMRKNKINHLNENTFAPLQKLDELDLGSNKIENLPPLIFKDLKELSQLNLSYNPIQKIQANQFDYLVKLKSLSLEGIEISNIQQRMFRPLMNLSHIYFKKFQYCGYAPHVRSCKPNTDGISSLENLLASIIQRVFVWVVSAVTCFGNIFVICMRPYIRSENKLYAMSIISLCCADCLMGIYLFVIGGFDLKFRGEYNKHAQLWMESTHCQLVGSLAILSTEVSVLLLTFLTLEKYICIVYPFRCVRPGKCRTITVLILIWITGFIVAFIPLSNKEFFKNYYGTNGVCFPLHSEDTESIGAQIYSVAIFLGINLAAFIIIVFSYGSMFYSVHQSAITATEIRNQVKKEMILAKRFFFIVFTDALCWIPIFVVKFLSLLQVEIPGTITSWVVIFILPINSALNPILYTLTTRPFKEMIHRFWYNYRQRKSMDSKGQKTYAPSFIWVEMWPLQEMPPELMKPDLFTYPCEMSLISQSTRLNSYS

The target in experiment [2] is T1, human RXFP1. The source holds these as a separate data set.
The target of experiment [3] is T2, rat RXFP1 (rat, UniProt Q6R6I6 1-758).
T2 sequence (looked up): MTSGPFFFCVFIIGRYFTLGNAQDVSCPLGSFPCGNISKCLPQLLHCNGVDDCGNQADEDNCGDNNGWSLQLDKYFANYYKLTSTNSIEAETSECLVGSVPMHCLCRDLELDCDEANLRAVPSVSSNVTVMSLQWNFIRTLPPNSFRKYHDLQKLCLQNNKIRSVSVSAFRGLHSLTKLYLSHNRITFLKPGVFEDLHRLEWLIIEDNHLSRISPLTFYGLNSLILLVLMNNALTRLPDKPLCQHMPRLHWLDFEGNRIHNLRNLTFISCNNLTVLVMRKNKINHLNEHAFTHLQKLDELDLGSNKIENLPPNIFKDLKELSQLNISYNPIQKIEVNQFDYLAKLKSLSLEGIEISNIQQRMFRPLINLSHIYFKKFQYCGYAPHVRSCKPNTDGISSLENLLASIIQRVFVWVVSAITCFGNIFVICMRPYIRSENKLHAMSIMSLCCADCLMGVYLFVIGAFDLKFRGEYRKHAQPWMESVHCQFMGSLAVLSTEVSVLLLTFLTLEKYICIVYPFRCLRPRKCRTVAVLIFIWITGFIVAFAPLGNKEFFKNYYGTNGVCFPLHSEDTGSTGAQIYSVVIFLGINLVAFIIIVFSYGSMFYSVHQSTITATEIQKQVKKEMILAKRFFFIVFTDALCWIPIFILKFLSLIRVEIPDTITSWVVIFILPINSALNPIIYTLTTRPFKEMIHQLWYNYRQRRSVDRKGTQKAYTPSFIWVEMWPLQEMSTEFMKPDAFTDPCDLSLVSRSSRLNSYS

The target of experiment [4] is T1, human RXFP1. This is another data set of the same source.
The target in experiment [5] is T2, rat RXFP1. The source holds these as a separate data set.
Experiment [6] concerns the target T3, cynomolgus monkey RXFP1 (cynomolgus monkey, UniProt H9ERA2 1-757 (rhesus entry)).
T3 sequence: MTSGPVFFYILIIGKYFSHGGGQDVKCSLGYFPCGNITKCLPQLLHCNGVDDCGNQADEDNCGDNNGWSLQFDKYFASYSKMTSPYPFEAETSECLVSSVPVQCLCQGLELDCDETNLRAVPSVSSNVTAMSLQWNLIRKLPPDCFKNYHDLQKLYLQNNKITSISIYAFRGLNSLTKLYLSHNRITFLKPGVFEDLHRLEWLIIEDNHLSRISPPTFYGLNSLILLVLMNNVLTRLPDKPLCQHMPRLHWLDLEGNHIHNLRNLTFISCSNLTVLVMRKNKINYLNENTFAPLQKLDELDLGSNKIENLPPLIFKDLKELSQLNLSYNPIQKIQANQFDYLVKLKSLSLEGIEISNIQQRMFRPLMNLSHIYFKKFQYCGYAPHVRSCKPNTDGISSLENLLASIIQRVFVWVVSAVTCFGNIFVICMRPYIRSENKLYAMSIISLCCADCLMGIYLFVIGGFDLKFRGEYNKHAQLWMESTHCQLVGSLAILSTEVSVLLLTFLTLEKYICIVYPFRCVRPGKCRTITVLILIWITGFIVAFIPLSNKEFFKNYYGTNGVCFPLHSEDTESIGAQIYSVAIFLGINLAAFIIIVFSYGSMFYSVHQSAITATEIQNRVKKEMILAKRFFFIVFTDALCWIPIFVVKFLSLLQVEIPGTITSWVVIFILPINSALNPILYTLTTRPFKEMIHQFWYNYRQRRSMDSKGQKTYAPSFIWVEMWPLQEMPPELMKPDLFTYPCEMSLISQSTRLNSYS

The target in experiment [7] is T1, human RXFP1. This is another data set of the same source.
Experiment [8] deals with T2, rat RXFP1. This is another data set of the same source.
For experiment [9], the target named is T4, human RXFP2 (human, UniProt Q8WXD0 1-754).
Experiment [10] concerns the target T1, human RXFP1. This is another data set of the same source.
In experiment [11] the target is T1, human RXFP1. This is another data set of the same source.
For experiment [12], the target named is T4, human RXFP2. The source holds these as a separate data set.
The target of experiment [13] is T1, human RXFP1. This is another data set of the same source.

“And” between values parts separate entries of the source, which are not always exact repeats. Equal entries are not always repeated. Where two headings read alike, the source gives them in different places. Bounds are passed on as bounds.

T4 sequence (Q8WXD0 whole entry): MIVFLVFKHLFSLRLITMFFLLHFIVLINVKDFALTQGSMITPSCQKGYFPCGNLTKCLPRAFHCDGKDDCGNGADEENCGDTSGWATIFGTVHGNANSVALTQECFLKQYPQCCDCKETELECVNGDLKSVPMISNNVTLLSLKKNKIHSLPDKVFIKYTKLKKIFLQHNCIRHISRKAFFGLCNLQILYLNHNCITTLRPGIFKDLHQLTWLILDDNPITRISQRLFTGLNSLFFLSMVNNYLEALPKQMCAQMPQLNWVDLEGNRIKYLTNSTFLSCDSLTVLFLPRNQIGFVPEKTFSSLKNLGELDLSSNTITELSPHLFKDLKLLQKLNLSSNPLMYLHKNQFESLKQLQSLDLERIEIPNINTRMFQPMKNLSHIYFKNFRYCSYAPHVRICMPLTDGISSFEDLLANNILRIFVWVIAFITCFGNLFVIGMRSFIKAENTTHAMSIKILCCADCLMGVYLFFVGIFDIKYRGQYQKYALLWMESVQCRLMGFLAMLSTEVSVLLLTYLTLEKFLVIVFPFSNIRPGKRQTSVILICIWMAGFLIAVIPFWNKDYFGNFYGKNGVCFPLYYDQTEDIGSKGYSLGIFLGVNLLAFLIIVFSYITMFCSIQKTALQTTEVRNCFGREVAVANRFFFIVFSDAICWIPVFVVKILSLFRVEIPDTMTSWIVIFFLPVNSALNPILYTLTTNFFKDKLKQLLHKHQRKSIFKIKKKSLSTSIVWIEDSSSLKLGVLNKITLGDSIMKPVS

B1: Wild-type human relaxin-2 (ligand)
chain 1: DSWMEEVIKLCGRELVRAQIAICGMSTWS
chain 2: QLYSALANKCCHVGCTKRSLARFC
B1: in experiment [1], the “Potency (cAMP, transient hRXFP1 in HEK293)” value is 0.1 nM. Further, in experiment [2], the “THP1 (endogenous RXFP1) cAMP EC50” value is 0.2 nM and the “Transient HEK293 hRXFP1 cAMP EC50” value came to 0.039 nM. Besides, the “Transient HEK293 rRXFP1 cAMP EC50” value in experiment [3] turned out to be 0.122 nM. Moreover, in experiment [4], the “EC50 for cAMP generation, recombinant human RXFP1 assay (average)” value came out at 0.04 nM. Besides, the “EC50 for cAMP generation, recombinant rat RXFP1 assay (average)” value in experiment [5] was found to be 0.1 nM. In addition, the “cAMP response EC50, cynomolgus monkey RXFP1 transient in HEK293” value in experiment [6] was 0.04 nM and 0.2 ng/mL. The “cAMP response EC50, human RXFP1 transient in HEK293” value in [7] is 0.05 nM and 0.3 ng/mL. Further, in [8], the “cAMP response EC50, rat RXFP1 transient in HEK293” value is 0.1 nM and 0.6 ng/mL. Besides, in experiment [9], the “cAMP response EC50, human RXFP2 stable in CHO-K1” value was 10 nM and 90 ng/mL. In experiment [10], the “cAMP response EC50, THP-1 (endogenous RXFP1)” value was 0.07 nM and 0.4 ng/mL; the “cAMP response EC50, human RXFP1 stable in CHO-K1” value is 0.2 nM and 1 ng/mL. Moreover, in [11], the “EC50, cAMP response in RXFP1 transfected HEK293 cells” value was found to be 0.042 nM and the “pEC50, cAMP response in RXFP1 transfected HEK293 cells” value was 10.4.

B2: SEQ ID NO: 87 (Fc fusion)
chain: DKTHTCPPCPAPEAAGGPSVFLFPPKPKDTLMISRTPEVTCVVVDVSHEDPEVKFNWYVDGVEVHNAKTKPREEQYNSTYRVVSVLTVLHQDWLNGKEYKCKVSNKALAAPIEKTISKAKGQPREPQVYTLPPSRDELTKNQVSLTCLVKGFYPSDIAVEWESNGQPENNYKTTPPVLDSDGSFFLYSKLTVDKSRWQQGNVFSCSVLHEALHSHYTQKSLSLSPGKGGSDSWQEEVIKLCGRELVRAQIAICGKSTASDAAGAEAEAGARQLYSALANKCCHVGCTKRSLAQFC
Turning to B2, in [1], the “Potency (cAMP, transient hRXFP1 in HEK293)” value stood at 5.2 nM. In [2], the “THP1 (endogenous RXFP1) cAMP EC50” value is 25 nM and the “Transient HEK293 hRXFP1 cAMP EC50” value worked out at 8.7 nM. Besides, the “Transient HEK293 rRXFP1 cAMP EC50” value in experiment [3] amounted to 10.3 nM. In [12], the “fold loss of cAMP potency on human RXFP2 against human RXFP1 (CHO-K1, stable)” value is approximately 100 fold. The “EC50 for cAMP generation, recombinant human RXFP1 assay (average)” value in [4] is 10 nM. In addition, the “EC50 for cAMP generation, recombinant rat RXFP1 assay (average)” value in experiment [5] was determined as 35 nM. In addition, the “Potency (cAMP, transient hRXFP1 in HEK293)” value in [13] was 8.5 nM. In addition, the “cAMP response EC50, cynomolgus monkey RXFP1 transient in HEK293” value in experiment [6] was 10 nM and 800 ng/mL. For the same molecule, the “cAMP response EC50, human RXFP1 transient in HEK293” value in [7] was 10 nM and 800 ng/mL. In addition, the “cAMP response EC50, rat RXFP1 transient in HEK293” value in experiment [8] was 30 nM and 2000 ng/mL. Besides, the “cAMP response EC50, human RXFP2 stable in CHO-K1” value in [9] is > 2 µM and > 1e+06 ng/mL. Also, in experiment [10], the “cAMP response EC50, THP-1 (endogenous RXFP1)” value is 10 nM and 900 ng/mL; the “cAMP response EC50, human RXFP1 stable in CHO-K1” value was 40 nM and 2000 ng/mL.
